Test results taken from patent publication US20170190786A1.

What was measured:
[1] = target: human ErbB2 on BT474 human breast tumor cells (human) (UniProt P04626); assay: cell-based or functional assay
[2] = target: human ErbB2 on BT474 human breast tumor cells (human) (UniProt P04626); assay: Scatchard analysis, 125I-labelled antibody on BT474 cell monolayers, 4 hours on ice

% apoptosis of the BT474 cell population [1] [%]	proportion of S-phase cells (BT474) [1] [%]	Kd [2] [nM]	Substance
41.9	5.4	6.5	anti-ErbB2 IgG1κ murine monoclonal antibody 4D5
60.5	64.9		anti-ErbB2 IgG1κ murine monoclonal antibody 7C2
